Experimental data published in article PMC9637774.
Positions count from the first letter of the chain named.

Legend:
[1] = target: T1, Dicer-1 (Dcr-1);Loqs-PB (Loquacious isoform PB) (Drosophila melanogaster;Drosophila …, UniProt Q9VCU9;Q9VJY9 1-2249;1-465, |); test: cryo-EM structure
[2] = target: T1, Dicer-1 (Dcr-1);Loqs-PB (Loquacious …); test: cryo-EM structure; remark: listed apart in the source
[3] = target: T1, Dicer-1 (Dcr-1);Loqs-PB (Loquacious …); test: competition
[4] = target: T1, Dicer-1 (Dcr-1);Loqs-PB (Loquacious …); test: cryo-EM structure; remark: listed apart in the source

T1 sequence (Q9VCU9 whole entry, chain 1 of 2, canonical isoform): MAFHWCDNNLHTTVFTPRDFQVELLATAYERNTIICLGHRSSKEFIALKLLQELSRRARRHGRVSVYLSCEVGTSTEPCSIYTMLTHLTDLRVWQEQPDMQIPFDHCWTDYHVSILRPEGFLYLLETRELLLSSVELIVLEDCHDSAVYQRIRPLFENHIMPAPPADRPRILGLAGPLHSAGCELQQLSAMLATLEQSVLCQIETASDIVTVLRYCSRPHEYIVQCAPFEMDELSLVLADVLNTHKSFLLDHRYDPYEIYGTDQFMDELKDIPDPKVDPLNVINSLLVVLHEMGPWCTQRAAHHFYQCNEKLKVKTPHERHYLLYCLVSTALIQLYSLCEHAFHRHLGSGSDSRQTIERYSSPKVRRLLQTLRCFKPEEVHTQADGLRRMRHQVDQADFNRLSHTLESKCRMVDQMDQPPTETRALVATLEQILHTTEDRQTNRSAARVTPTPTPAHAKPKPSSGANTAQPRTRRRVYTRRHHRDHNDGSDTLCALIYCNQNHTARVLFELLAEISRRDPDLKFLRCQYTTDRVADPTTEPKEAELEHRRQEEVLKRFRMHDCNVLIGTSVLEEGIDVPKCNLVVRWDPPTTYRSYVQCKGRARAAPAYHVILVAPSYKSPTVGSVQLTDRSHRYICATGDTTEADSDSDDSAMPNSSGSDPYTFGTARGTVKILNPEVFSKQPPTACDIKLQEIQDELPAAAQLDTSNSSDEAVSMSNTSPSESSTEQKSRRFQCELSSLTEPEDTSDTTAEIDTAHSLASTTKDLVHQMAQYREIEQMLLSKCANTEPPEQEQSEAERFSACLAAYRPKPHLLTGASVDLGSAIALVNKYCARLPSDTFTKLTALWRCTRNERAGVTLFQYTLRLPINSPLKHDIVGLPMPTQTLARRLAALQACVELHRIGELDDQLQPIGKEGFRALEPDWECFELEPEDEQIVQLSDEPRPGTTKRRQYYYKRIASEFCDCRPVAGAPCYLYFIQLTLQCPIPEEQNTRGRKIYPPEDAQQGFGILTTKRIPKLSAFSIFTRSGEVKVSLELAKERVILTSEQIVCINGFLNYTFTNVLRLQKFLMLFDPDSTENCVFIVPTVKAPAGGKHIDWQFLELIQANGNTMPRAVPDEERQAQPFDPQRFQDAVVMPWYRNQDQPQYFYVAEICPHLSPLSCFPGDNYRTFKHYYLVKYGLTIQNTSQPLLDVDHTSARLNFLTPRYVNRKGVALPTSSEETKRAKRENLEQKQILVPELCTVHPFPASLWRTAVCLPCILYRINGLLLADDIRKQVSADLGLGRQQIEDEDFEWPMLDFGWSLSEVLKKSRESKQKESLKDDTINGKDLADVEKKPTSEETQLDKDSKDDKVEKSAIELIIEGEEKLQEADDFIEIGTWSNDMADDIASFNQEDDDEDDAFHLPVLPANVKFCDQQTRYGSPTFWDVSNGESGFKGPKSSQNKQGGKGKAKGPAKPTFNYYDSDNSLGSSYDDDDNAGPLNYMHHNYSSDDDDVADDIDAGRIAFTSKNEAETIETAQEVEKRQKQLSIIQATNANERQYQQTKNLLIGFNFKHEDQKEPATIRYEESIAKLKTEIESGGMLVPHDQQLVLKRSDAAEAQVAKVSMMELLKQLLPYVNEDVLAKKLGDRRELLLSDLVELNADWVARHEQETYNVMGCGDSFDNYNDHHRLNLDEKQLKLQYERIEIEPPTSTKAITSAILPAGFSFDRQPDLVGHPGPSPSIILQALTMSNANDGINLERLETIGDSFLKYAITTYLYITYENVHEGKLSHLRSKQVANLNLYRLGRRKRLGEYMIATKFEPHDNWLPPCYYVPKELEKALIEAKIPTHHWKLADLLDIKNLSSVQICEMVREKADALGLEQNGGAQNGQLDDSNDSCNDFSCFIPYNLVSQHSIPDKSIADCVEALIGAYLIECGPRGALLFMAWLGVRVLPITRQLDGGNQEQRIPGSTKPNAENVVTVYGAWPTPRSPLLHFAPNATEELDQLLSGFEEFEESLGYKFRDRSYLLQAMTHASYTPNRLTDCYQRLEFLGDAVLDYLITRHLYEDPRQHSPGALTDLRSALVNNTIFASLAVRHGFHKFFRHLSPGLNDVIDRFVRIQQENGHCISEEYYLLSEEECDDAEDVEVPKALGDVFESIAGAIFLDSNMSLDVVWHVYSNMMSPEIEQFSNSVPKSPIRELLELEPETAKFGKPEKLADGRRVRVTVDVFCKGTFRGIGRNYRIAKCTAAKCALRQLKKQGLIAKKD
T1 sequence (Q9VJY9 whole entry, chain 2 of 2, canonical isoform): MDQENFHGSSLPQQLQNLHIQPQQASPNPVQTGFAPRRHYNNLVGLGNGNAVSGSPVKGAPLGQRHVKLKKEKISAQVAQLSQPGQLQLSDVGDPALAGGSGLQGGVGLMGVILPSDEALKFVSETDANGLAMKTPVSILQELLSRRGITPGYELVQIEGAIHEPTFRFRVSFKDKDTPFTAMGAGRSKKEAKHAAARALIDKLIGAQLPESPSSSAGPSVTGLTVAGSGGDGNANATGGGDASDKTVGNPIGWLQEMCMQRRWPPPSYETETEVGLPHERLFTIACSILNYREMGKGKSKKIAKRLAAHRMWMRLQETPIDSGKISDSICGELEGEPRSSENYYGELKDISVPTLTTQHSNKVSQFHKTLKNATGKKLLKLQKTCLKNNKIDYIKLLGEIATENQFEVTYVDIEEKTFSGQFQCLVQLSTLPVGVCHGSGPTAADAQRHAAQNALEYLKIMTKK

B1: nicked model pre-miRNA (5' arm cleaved) (structured_RNA)
RNA 1: UGAGGUAGUAGGUUGUAUAGUA
RNA 2: GUAAUUACACAUCAUACUAUACAACCUACUACCUCUCU
modifications: 5' phosphate
B1: binds [1].

B2: model pre-miRNA (structured_RNA)
RNA: UGAGGUAGUAGGUUGUAUAGUAGUAAUUACACAUCAUACUAUACAACCUACUACCUCUCU
modifications: 5' phosphate
B2: binds [2].

B3: pre-let-7 (structured_RNA)
RNA: B2 RNA with C47U, C48G, A50G, C54G, C57U
modifications: 5' phosphate
B3: binds [3].

B4: model miRNA/miRNA* duplex (dsRNA)
RNA 1: UGAGGUAGUAGGUUGUAUAGUA
RNA 2: CUAUACAACCUACUACCUCUCU
modifications: 5' phosphates
B4: binds [4].
